Reference: the DeepSol protein solubility set

assay: soluble on expression in E. coli; label from the status in PepcDB or PDB records

Q: With “MSLCDYLERSAKKFPEKVAVQGVRLGHIEAITYAELNTFSDRFSEFLRAQGVTRGEFIPFFMFKEIDSIKSIFSILKADCAYVPLDCKSPEGRLLSIIKSCKAKFIIVNERSESLAERVFSAIPTLKIINISEFVSDTAFVFSASLNISVDLAYVLFTSGSTGTPKGVMISHQAIIDYIGWCTETYNITAIDHVSNHAPLYFDNSTFDIYTSMAAGATLHLVPEEFNVMLPRLIDWIEDNRISIFFCVPSILTLMLQTGRLRTERFVELKHLICAGEVLPTTTAKKILGLFPHLQLTNMYGPTEITVDCTYHVIREADVTSSTSIPIGKPRRNMQLMVLTDDGAVTNERGAIGELMVRGSSVSYGYLDNYAKTQEAFVQNPAHSLYPDMVYKTGDRVTIGEEGLYYYCGRLDNQIKHLGYRIELGEIEANALLLDTVLEAVAVYRSSTSMFESAICMAVKTTVPTDVRTLRAALTSVLPPYMIPGHFVFLDSDFPRTPNGKYDRASILGLFVEGHHHHHH” as the sequence, how does the “soluble on expression in E. coli” value read?
A: not soluble

Q: For “MSLDFSHEFFGSLDPQALAHPDSIKWQHYGEGVIPMWIADMDFPVAPPILRALEDRLTRGLGYPLGRDDRLIADLQTKWASQGLTDVPADGIHFTPSVVPGLYAGVHGLTEPGDRVVTMTPIYHPFHLAINDLGREVAAAPLREGDTRWEIDWDALERAAEGARLLMLCHPHNPCGRVWDADELARLRELVLAHDLYVISDELHADLRFTDAPFEAFAADPRVRDRTLTVTGPCKAFNTAGLGIGVMVTHDPELLARVQRRVAGLGGHPSALSFTMWRVALEDGGPWLARTVEYLRGNRDFMTAFLRERLPWVRFTVPEATYLAWLDLREHPEAGRIQEFLLEEAKVAVHNGPTFAPGEQGAAYQGFIRVNFATSRAILTEALERMARALDTRQEGHHHHHH”, which “soluble on expression in E. coli” value is on record?
A: not soluble

Q: With “MSLDIAVVGIGYVGLVSATCFAELGANVRCIDTDRNKIEQLNSGTIPIYEPGLEKMIARNVKAGRLRFGTEIEQAVPEADIIFIAVGTPAGEDGSADMSYVLDAARSIGRAMSRYILIVTKSTVPVGSYRLIRKAIQEELDKREVLIDFDIASNPEFLKEGNAIDDFMKPDRVVVGVDSDRARELITSLYKPMLLNNFRVLFMDIASAEMTKYAANAMLATRISFMNDVANLCERVGADVSMVRLGIGSDSRIGSKFLYPGCGYGGSCFPKDVKALIRTAEDNGYRMEVLEAVERVNEKQKSILFDKFSTYYKGNVQGRCVAIWGLSFKPGTDDMREAPSLVLIEKLLEVGCRVRVYDPVAMKEAQKRLGDKVEYTTDMYDAVRGAEALFHVTEWKEFRMPDWSALSQAMAASLVIDGRNVYELPADSDFTLLNIGNSAIESEGHHHHHH” as the sequence, how does the “soluble on expression in E. coli” value read?
A: soluble

Q: Which “soluble on expression in E. coli” value does the source give for “MSLDIHEGNLMPAKRKLTMRHIRQMLRLAGSGTSSREIAVMLGIARSTVQDNLKRAAMAGLSWALASGLTDDVLEAKLFVHPGVKRGQRLRQEPDWGPLSIELKKPGVTLLILWEEYRSAHPDGYGYSRFCELFRGFEKRLSPTMRQEHIAGDKVFVDYSGKKVPIVDRKTGEIREAELFLGVLGASSYCTRGRSVHLGELLRRAWIFQHLGNREGHHHHHH” here?
A: soluble

Q: With “MSLDKNRTMLLIVDINKGFAKEGALYSDRIEKLISPISNLANYALNSGIRVKAFTDYHTEDSIELKAYPKHCMKDTDEWELVDELNLEGIEVIKKNSTNGFLEENFILNKEEIDNVIIVGDCTDICIYQLAISLRAEFNRVNKDGEIYVPKKLVDTFDMPMHKANFMNYVFLNSMLDNGVKVIEDIILDEGHHHHHH” as the sequence, how does the “soluble on expression in E. coli” value read?
A: not soluble

Q: With “MSLDKNSKSFGEANERIGNAIHHVCLNASDAKFIKSNIQESYQSWANVLYDRVFLNWGLCDKKIYRELSSLNFDFSTVGFFPHVYGQSLLFYLIRPLIKIHFFNKRLLDVGCGNGVGLKISSELLKTRYALGIDLVSKLVTNSNNSFYIEDKINYMQADAENMAIANESFDIVTNLESSHLYPQIEHFFSEVERVLAPNGFFCYADVHFDVKQQAQRLEAFVKTKKNLRIIEKHNITKMVQASIYQRLIVNEKGFYQLAQYLLGPDKIHYTSELANVASSMGLMFLPWWRIRFKNPALQALGKFARRCKHWNKKYYFYYLIQKIDSEGHHHHHH” as the sequence, how does the “soluble on expression in E. coli” value read?
A: not soluble

Q: Which “soluble on expression in E. coli” value does the source give for “MSLDLFDRKAAADTLKEAPLAERMRPRTLAEYVGQEHLLGPGKLLRQLIETDQLTSLIFWGPPGSGKTTLARIIAGATKSHFIFFSAILSGIKEIREIVKEADDIRKFHGKRTILFVDEIHRFNKSQQDAFLPYVERGVFTIIGATTENPSFEVIAPLLSRCKVLVLNPLTEEEITGILRQALADKERGLGALDLAIEDDALTFMAEQAGGDARVALNTLETASRLTSNGVVSLDTAREAVQKKPLLYDKGGEEHYNVISAFIKSMRGSDPDGALYWLARMIEAGEDPIFILRRMVILASEDIGNADPRALQVAVTALQGFQLVGMPEGRIIIGQAVTYLATAPKSNASYVGIDAALAEVRKSGALPVPLHIRNAPTRLMKDLGYGTGYRYAHDYAEGYVAQDYLPDQIKGRKYYDPTGHGYEKSIKERMEWLKGKKEGHHHHHH” here?
A: soluble

Q: With “MSLDLNKYKDRIITLAKPYLNREFDFADVKLTLISGLGVEINGLRIADNPEFGSEDFLSLQSLRIKVALFPLLKKKIQIKKLIMDEPVVRLVRNSNGVFNFSDMASDAEEDEKPQAKDEKRKEKKSGSEKKPDSEHNIFLAGLMVSQFTLHSGQIHFLDNFVPDAPVTMVFDSLNIELKNVSLYKPIRIYASAGLQGTTEQNLLIKGMVGPVGDNMDLVGLAMDIHVSVQNVFLHKFVPYIPDGLMLSPLEGILYMTANIKGSVHSGLDLESVIQGEKLVMSIKDSDEKIQNVNITLKEKIKYDDRKGDIGFQQLDLALNDNNVSLTGTIENIKTDPQWDVTLMAKMNALDEALALYPVFKEALPQDFRFTGPLNMEITSSGSKDAMQISGHTDMTRAEILYGEVFKKQKNIPFQISLKANKIADIIQLEAFAVNLQNASLNSSGSIEDMVNPRFDLVSTANEFSLKGWDAIVPLLKEYEPEGSVSIKNYMKGNFDDAFVNLHVSSPKLLFKFPASSDKKEDENTKQRKDVAESIRFELLAKKLADNITADGGLEMGNGTILDINFEEAKGKYSFQDDILKIQSFQMRTFEGDISLTGNYDSKSMQWDASPIINAVRIDGVVDAFTQYRGMMKGVFSGSFDMGGSLGKNDKMVTNANGSFRLLQGEIENVNLMETIIDSLLGIKEVYKYAGEKKDVLEKYDVTRFDSLDGEFSLLNDMLDLKKCYLENIYTPDVPGSDAKLKGDINFDTGKLDLSGKVILSSEHSEKLTKKAKPLKALLNEKGNIVLPVTVTGTMSNPKPLLDTSYVLNAMMNYYGKEELEKGLDKLKGKLGLEKLGLEKLWQKDEGHHHHHH” as the sequence, how does the “soluble on expression in E. coli” value read?
A: not soluble

Q: For “MSLDLRKSKELTGIEAHINDNKKEESNVEYFEKLRSALLDGVNKGRSLLKHLPVTRIEGQSFRVDIIKFEDGVRVVKQEYKPIPLLKKKFYVGIRELNDGTYDVSIATKAGELLVKDEESLVIREILSTEGIKKMKLSSWDNPEEALNDLMNALQEASNASAGPFGLIINPKRYAKLLKIYEKSGKMLVEVLKEIFRGGIIVTLNIDENKVIIFANTPAVLDVVVGQDVTLQELGPEGDDVAFLVSEAIGIRIKNPEAIVVLEEGHHHHHH”, which “soluble on expression in E. coli” value is on record?
A: soluble

Q: With “MSLDNTEQEKFETYDLDVETVYCRPIIKFPLLLIHAYRVYLALNDHNDIEPRLHSDRLLEIFDPLINGDEQSVKLFIETLWQVRYQFDRWVVKWVERDDATDAQLGLTYQSRSKSNDTYYINRTQKELTDIVLLQSVRNFTGERSAQYWLTPFLSGLIRSSIKQDSVALELLENIDNKMSLSVDTQKEASFALAEGIEPNCQSWQSQSTYFAKSLGTSFEHYWFQKLEYLIWKKMKASESSLPSEELNKFKKYRITSKNSVEHVHPQNDEYNSRLDCETLNSFGNLVLLSPGENSSYSNQDVDKKRIDFERKSHFDALKLREIFGVKGQGLWGKQQIDNHLEDMMAVFAQHYKEGHHHHHH” as the sequence, how does the “soluble on expression in E. coli” value read?
A: not soluble

Q: With “MSLDQYGNIRAMGIHSLLYCERLFYLEEVEGILVADDRVYAGRTLHEELEPNEDFSGRIESFHYTSEKLEVSGKVDRIQKRDGDWIPYEHKRGRARIGTNGPEAWESDQCQVTVYALLLEEATGRNISEGKIRYHGSKDLVKIEIDEELRSKALKTIDRAKELSTSTNRPPVAQNENLCKNCSLAPVCLPEETRVITENEYEPIRLFPEKREGHHHHHH” as the sequence, how does the “soluble on expression in E. coli” value read?
A: soluble

Q: With “MSLDRLIHWYNMAVYPSIFATMLPVDPRRALGAFLRSHRERLPPPPLALGRRRTPGWRREELAEACGVSLTWITWLEQGRDVSASPHALARLAEALHLAPAERGYLFELAGRRDPVSPVASDDGIPPAVLALPGHMNVPAYLLDRTWTARAWNSAASRLFTGWLDGDHDRNLLRFIFLSPAAPRLIADWDQRAHRVVAEFRADFSRRLRDPALQALVESLAAQSQAFRTLWHEQAVLDREGGERSFLNPARRFHQSTLILAANADIKLVSLVPMDGEEFEGHHHHHH” as the sequence, how does the “soluble on expression in E. coli” value read?
A: soluble

Q: For “MSLDRNLYEDTFVVFDVETTGLSAVYDTIIELAAVKIKGGEIVDRFESFANPHHALSQTTIDLTGITDDMVNDAPEVADVLKDFHTWMGNDILVAHNASFDMGFLNQGFQRIDYEKASNPVVDTLELARFLLPELRNHRLNTLCKHLDIELTQHHRAIYDAEATGYLLWKLVQRLVEKEISNHEGHHHHHH”, which “soluble on expression in E. coli” value is on record?
A: soluble

Q: With “MSLDSRPAVLEISASIIDISENALEQLGVDWRLHNSRFDLQTGNGTNTMLNNPGSLDSVATTAGAAAAIAATPAGGVLSAVIGGGSRYLMARISALQQTDQARITANPKVATLDNTEAVMDNRQNFYVPVAGYQSADLYAISAGVSLRVLPMVVMDGGTVRIRMNVHIEDGQITSQQVGNLPITSQSEIDTQALINEGDSLLIAGYSVEQQSKSVDAVPGLSKIPLVGALFRTDQTTGKRFQRMFLVTPRVITPEGHHHHHH” as the sequence, how does the “soluble on expression in E. coli” value read?
A: soluble

Q: With “MSLDTMWFRNIDNFINEINRFALLGTVTNKNGWLINNGIYYAGRLGKLHSTPTKGQQVVTDAMRIYPYLGEQYFVAAEQITTNYGGIDANGKTVNLDQIREEGKKKYLPKTYTFDDGAIVFKAGDKVSEEKIKRLYWAAKEVRSQFYRTVGSDKPLEKWTCEGHHHHHH” as the sequence, how does the “soluble on expression in E. coli” value read?
A: not soluble

Q: For “MSLDTSRRRRLARRSIAASFRLFLTVAKGLGVLDYRIDGAEILHQERGCLVVANHPTLIDYVLLASVMPETDCLVKSALLKNPFLGGVVRATDYLINSEAETLLPRCQQRLAQGDTILIFPEGTRTKPGEKMTLQRGAANIAVRCASDLRIVTIGCSEHLLDKQSKWYDVPPDRPFFTVAVHGRVEINKFYDATSQEPALAARQLNRHLLLQLQQGCLPLSGINNASALSGNEGHHHHHH”, which “soluble on expression in E. coli” value is on record?
A: not soluble

Q: For “MSLDTTALPHTTFEGIPLDGKNKQDIQKIVQQKVEELNKKSLNYVFENNTQTYTWKDLGVEYKEKDIVANIFKEQQGNIIDRYNMRKKAIHGELKREYKLKPQLNSTAYEAFMEDKYNETLKNPVNAELNISGTTVNISESQNGEKIDKEQLAILTKQAIAANTQNIKLPIASIKPERSTEDIQNMGIKQVIAEYSTPMTGRNGSQSFNVNKSANTLSGAIVAPDETFSFNGRVGITDAAHGYKSAAVYLQGKVVQSAGGGVCQVSSTLYGAVLRADLGVVARSNHSMPVHYLPLGQDAAVADYGPDLKFKNNTGHYIYIQAFSDGNRITTRIFGTPTGKNVEVSSKVISNTGNKITAVTYKKVTKDGQVISNGQISKSVYKKEGHHHHHH”, which “soluble on expression in E. coli” value is on record?
A: not soluble
